Data as given in US20210340207A1 (Merck Sharp & Dohme, published 2021).
Numbering of substitutions follows the chain as printed. In names and notes the source's numbering stands. *1 amine or outer side, *2 acyl side, *3 side chain or, on linkers, in order; H or OH if unused. [ ]: non-standard residue; d: D form. pAMF = para-azidomethylphenylalanine, [N-]=[N+]=NCc1ccc(C[C@H](N[*:1])C(=O)[*:2])cc1

T1: human IL-2Rαβγc (on Kit225-STAT5 reporter cells, NK-92 cells, primary Treg cells) (human, UniProt P01589 22-272; P14784 27-551; P31785 23-369)
T1 sequence (looked up) 1: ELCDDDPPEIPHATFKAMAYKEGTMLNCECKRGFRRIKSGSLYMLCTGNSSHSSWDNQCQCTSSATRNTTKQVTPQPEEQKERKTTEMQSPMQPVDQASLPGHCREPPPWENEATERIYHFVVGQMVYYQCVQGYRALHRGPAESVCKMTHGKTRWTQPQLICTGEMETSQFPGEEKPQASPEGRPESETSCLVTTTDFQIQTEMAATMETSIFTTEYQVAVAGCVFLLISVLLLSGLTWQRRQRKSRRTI
T1 sequence (looked up) 2: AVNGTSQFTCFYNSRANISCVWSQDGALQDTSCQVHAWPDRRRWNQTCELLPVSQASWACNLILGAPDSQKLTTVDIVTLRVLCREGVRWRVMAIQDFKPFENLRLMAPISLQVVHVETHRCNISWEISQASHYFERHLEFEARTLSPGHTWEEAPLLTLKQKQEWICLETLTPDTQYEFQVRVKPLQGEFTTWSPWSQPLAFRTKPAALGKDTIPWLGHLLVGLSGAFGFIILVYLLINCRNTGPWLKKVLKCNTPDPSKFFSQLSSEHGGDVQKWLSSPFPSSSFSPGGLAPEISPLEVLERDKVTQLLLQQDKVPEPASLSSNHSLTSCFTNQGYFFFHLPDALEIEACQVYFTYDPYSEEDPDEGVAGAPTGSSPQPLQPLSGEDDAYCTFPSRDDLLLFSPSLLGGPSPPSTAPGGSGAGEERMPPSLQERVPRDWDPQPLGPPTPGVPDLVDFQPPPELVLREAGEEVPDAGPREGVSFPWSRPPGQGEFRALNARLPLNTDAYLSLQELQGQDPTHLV
T1 sequence (looked up) 3: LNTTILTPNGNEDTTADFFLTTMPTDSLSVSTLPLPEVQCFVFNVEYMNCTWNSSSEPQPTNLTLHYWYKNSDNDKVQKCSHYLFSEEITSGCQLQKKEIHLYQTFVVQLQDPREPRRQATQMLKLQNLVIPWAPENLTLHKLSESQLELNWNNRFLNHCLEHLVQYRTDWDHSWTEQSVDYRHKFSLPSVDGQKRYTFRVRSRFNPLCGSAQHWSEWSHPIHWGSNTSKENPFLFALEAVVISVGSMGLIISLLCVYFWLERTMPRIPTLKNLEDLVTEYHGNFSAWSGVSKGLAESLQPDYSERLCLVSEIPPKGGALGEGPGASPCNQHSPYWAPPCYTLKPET

T2: human IL-2Rβγc (on DERL-7 cells, U2OS IL2RB/IL2RG cells, CD25 knockout Kit225-STAT5 cells, primary CD8+ CTLs) (human, UniProt P14784 27-551; P31785 23-369)
T2 sequence (looked up) 1: T1 sequence (looked up) 2
T2 sequence (looked up) 2: T1 sequence (looked up) 3

T3: mouse IL-2Rαβγc (on CTLL2-STAT5 reporter cells) (mouse, UniProt P01590 22-268; P16297 27-539; P34902 23-369)
T3 sequence (looked up) 1: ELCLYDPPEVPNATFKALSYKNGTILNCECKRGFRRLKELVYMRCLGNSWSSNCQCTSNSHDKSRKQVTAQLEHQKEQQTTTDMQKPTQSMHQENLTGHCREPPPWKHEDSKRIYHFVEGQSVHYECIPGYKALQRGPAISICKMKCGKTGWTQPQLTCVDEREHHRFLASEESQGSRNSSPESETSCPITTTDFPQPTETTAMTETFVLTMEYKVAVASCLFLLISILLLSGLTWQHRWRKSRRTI
T3 sequence (looked up) 2: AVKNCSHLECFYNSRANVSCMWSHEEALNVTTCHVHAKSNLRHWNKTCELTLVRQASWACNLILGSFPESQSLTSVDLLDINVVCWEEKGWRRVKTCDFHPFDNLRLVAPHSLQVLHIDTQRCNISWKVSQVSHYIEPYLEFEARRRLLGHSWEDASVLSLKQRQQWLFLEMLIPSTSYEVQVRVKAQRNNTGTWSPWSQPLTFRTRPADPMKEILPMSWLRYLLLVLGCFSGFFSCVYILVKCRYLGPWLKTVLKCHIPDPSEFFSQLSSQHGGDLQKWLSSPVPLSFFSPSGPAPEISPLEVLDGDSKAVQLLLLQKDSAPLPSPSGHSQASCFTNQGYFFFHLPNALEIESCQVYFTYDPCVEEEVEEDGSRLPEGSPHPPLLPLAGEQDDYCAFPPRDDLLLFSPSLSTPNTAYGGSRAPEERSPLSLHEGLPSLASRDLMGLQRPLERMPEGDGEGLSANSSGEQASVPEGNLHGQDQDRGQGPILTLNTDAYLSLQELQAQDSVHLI
T3 sequence (looked up) 3: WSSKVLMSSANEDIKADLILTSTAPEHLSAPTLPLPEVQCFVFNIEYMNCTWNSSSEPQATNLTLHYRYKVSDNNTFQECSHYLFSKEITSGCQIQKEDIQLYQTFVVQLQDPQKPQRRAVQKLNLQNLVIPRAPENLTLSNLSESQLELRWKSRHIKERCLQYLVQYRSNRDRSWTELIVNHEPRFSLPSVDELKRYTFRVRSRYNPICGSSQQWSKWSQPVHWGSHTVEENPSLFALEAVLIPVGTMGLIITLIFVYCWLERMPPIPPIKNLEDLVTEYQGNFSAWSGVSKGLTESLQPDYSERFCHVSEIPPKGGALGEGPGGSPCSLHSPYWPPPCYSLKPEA

T4: Biotin-IL-2Rβ-His (UniProt P14784 27-239, limits assumed, biotin-labeled (site not stated))
T4 construct: also called biotin-labeled IL-2Rβ; not shown: His tag
T4 sequence (looked up): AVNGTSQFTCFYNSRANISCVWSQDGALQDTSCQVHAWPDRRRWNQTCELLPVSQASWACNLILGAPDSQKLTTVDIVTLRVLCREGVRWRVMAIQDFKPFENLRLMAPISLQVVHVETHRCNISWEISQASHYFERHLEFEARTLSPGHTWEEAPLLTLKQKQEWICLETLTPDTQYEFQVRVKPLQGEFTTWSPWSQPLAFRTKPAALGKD

T5: Biotin-IL-2Rα-His (UniProt P01589 22-213, limits assumed, biotin-labeled (site not stated))
T5 construct: also called biotin-labeled IL-2Rα; not shown: His tag
T5 sequence (looked up): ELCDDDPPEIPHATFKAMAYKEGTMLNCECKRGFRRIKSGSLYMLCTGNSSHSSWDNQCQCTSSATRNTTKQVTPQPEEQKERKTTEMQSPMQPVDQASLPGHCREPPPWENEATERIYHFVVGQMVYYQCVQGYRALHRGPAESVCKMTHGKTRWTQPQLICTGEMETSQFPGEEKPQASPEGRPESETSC

T6: Human IL-2Rβ (Table 7B) (human, UniProt P14784 27-239, limits assumed)
T6 sequence (looked up): T4 sequence (looked up)

B1: Ald_S4pAMF/R37A/F41K (MUT1) (ligand)
chain: PTS[pAMF]STKKTQLQLEHLLLDLQMILNGINNYKNPKLTAMLTKKFYMPKKATELKHLQCLEEELKPLEEVLNLAQSKNFHLRPRDLISNINVIVLELKGSETTFMCEYADETATIVEFLNRWITFSQSIISTLT
modifications: ends and bridges not checked
B2: Ald-6HIS_E60T/E61S (ligand)
chain: PTSSSTKKTQLQLEHLLLDLQMILNGINNYKNPKLTRMLTFKFYMPKKATELKHLQCLETSLKPLEEVLNLAQSKNFHLRPRDLISNINVIVLELKGSETTFMCEYADETATIVEFLNRWITFSQSIISTLTGGSHHHHHH
B3: Ald-6HIS_E61S/P64A/Y106A (ligand)
chain: B2 chain with T60E, P64A, Y106A
B4: Ald-6HIS_E60T/E61S/P64A (ligand)
chain: B2 chain with P64A
B5: Ald-6HIS_E60T/P64A (ligand)
chain: B2 chain with S61E, P64A
B6: Ald-6HIS_E61S/Y106A (ligand)
chain: B2 chain with T60E, Y106A
B7: Ald-6HIS_T40D/F41K/E60T (ligand)
chain: B2 chain with T40D, F41K, S61E
B8: Ald-6HIS_E61S/P64A (ligand)
chain: B2 chain with T60E, P64A
B9: Ald-6HIS_T40D/F41K (ligand)
chain: B2 chain with T40D, F41K, T60E, S61E

Key:
[1] = molecular target: T1, human IL-2Rαβγc (on Kit225-STAT5 …); assay: cell-based or functional assay
[2] = molecular target: T2, human IL-2Rβγc (on DERL-7 cells, U2OS …); assay: cell-based or functional assay
[3] = molecular target: T3, mouse IL-2Rαβγc (on CTLL2-STAT5 …); assay: cell-based or functional assay
Biotin-IL-2Rβ-His = molecular target: T4, Biotin-IL-2Rβ-His; assay: SPR (Biacore T200)
Biotin-IL-2Rα-His = molecular target: T5, Biotin-IL-2Rα-His; assay: SPR (Biacore T200)
[4] = molecular target: T2, human IL-2Rβγc (on DERL-7 cells, U2OS …); assay: cell-based or functional assay; remark: listed apart in the source
[5] = molecular target: T3, mouse IL-2Rαβγc (on CTLL2-STAT5 …); assay: cell-based or functional assay; remark: listed apart in the source
[6] = molecular target: T2, human IL-2Rβγc (on DERL-7 cells, U2OS …); assay: cell-based or functional assay; remark: listed apart in the source
Human IL-2Rβ (Table 7B) = molecular target: T6, Human IL-2Rβ (Table 7B); assay: SPR (Biacore T200)
[7] = molecular target: T1, human IL-2Rαβγc (on Kit225-STAT5 …); assay: cell-based or functional assay; remark: listed apart in the source

Binder	U2OS-IL2Rbg EC50 [2] [nM]	CTLL2-STAT5 EC50 [3] [nM]	Kd (Biotin-IL-2Rβ-His) [nM]	fold reduction over wt (Biotin-IL-2Rβ-His) [fold]	Kd (Biotin-IL-2Rα-His) [nM]	fold reduction over wt (Biotin-IL-2Rα-His) [fold]	other results
B1	–	–	–	–	–	–	Kit225-STAT5 reporter, fold lower activity than aldesleukin [1]: 190 fold
B2	1.95	0.525	2000	5	800	80	–
B3	5.77	> 7	–	–	–	–	–
B4	1.96	1.09	1000	3	2000	200	–
B5	0.499	0.024	700	2	60	6	–
B6	2.87	> 7	2000	5	–	–	–
B7	–	–	–	–	–	–	DERL7 EC50 Fold Change [4]: 1.4 fold; DERL7 cell assay EC50 [4]: 0.025 nM; STAT5-CTLL2 EC50 [5]: 98.5 nM; STAT5-CTLL2 EC50 Fold Change [5]: 10900 fold; U2OS B/BG EC50 Fold Change [6]: 3.15 fold; U2OS B/BG bridging cell assay EC50 [6]: 0.503 nM; Kd (Human IL-2Rβ (Table 7B)): 1000 nM; koff (Human IL-2Rβ (Table 7B)): 0.36 s⁻¹; kon (Human IL-2Rβ (Table 7B)): 350000 M⁻¹ s⁻¹; NK-92 EC50 Fold Change [7]: 9.09 fold; NK-92 cell assay EC50 [7]: 0.063 nM
B8	0.634	0.213	500	1	500	50	–
B9	–	–	–	–	–	–	DERL7 EC50 Fold Change [4]: 0.65 fold; DERL7 cell assay EC50 [4]: 0.012 nM; STAT5-CTLL2 EC50 [5]: 6.31 nM; STAT5-CTLL2 EC50 Fold Change [5]: 699 fold; U2OS B/BG EC50 Fold Change [6]: 1.84 fold; U2OS B/BG bridging cell assay EC50 [6]: 0.294 nM; Kd (Human IL-2Rβ (Table 7B)): 980 nM; koff (Human IL-2Rβ (Table 7B)): 0.32 s⁻¹; kon (Human IL-2Rβ (Table 7B)): 330000 M⁻¹ s⁻¹; NK-92 EC50 Fold Change [7]: 2.81 fold; NK-92 cell assay EC50 [7]: 0.02 nM
